Measured values reported in the supplement of paper PMC10567573.

B1: NP_009172.2 (parent)
chain: LPALFTDLYSQEITAEEAREALP

Variants of: B1
Assay: protein stability index of a GFP-peptide fusion (GPS, HEK-293T) (PSI 1-6); higher = more stable
Details: c terminus: native
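Also: lentivirally expressed fusion library, cells FACS-sorted into six equal-sized GFP/DsRed ratio bins, PSI computed from sequencing read fractions per bin weighted by bin number.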

Protein stability index, by site and new letter:
I13: T 3.09 | F 2.69 | G 3.81 | D 3.25 | R 2.1 | E 3.25 | W 2.15 | M 2.53 | S 3.26 | C 2.57 | L 2.71 | Q 2.98 | K 2.66 | H 2.71 | A 2.97
A21: P 2.69 | V 2.16 | L 2.26 | M 2.23 | D 3.67 | R 2.02 | F 2.31 | Y 2.3 | I 2.4 | N 2.6 | Q 2.46 | W 2.19 | S 2.7 | C 2.46 | E 3.6 | T 2.85
S10: W 2.26 | N 2.61 | V 2.35 | K 2.48 | F 2.57 | Y 2.36 | P 3.79 | M 2.26 | R 2.71 | Q 2.57 | G 3.08 | E 2.48 | H 2.85 | I 1.95
T14: D 2.55 | S 2.67 | F 2.48 | Y 2.56 | G 2.73 | A 2.21 | W 2.62 | H 2.46 | R 2.44 | M 2.45 | I 2.25 | Q 2.27 | N 2.76 | P 3.48 | L 2.48 | V 2.51
E20: K 2.42 | M 2.39 | D 2.65 | N 2.2 | S 2.28 | I 2.32 | V 2.6 | R 1.98 | H 2.27 | A 2.41 | C 2.38 | W 2.42
P2: W 2.66 | N 2.59 | H 2.52 | A 2.69 | D 3.64 | L 2.48 | S 2.71 | K 2.5 | C 2.64 | I 2.37 | V 2.46 | Y 2.85 | E 3.51 | Q 2.69 | F 2.54
A3: M 2.47 | C 2.64 | F 2.76 | L 2.56 | E 3.66 | W 2.42 | D 4.1 | P 2.62 | V 2.49 | Y 2.62 | I 2.43
E17: P 2.73 | A 2.39 | K 2.18 | C 2.24 | V 2.43 | G 2.21 | W 2.4 | S 2.33 | I 2.4 | M 2.22 | D 2.71 | Q 2.83 | N 2.5 | H 2.2 | T 2.3
D7: F 2.6 | I 2.49 | V 2.58 | N 3.52 | A 2.88 | R 2.77 | C 3.44 | P 4.4 | W 2.48 | H 3.13
A15: W 2.68 | P 3.05 | G 2.83 | Q 2.84 | K 2.56 | H 2.6 | L 2.53 | N 2.66 | Y 2.72 | R 2.36 | C 3 | S 2.67
Y9: L 2.39 | A 2.34 | I 1.88 | E 5.17 | H 4.49 | R 5.15 | G 5.3 | W 2.65 | D 5.38 | Q 5.15 | M 3.13 | N 5.01 | K 5.39 | P 5.13 | S 3.98 | T 2.74 | F 2.81
F5: D 5.58 | V 5.07 | A 5.41 | G 5.28 | Y 3.72 | M 5.24 | R 5.42 | I 5.08 | N 5.52 | W 2.25 | C 5.41 | E 5.38 | Q 5.24 | T 5.25 | P 5.3
L1: K 1.72 | T 2.4 | N 2.86 | Q 2.5 | Y 2.5 | F 2.59 | H 2.6 | C 2.5 | R 2.22 | P 2.49 | M 2.91 | W 2.68 | V 2.59 | A 2.95 | E 2.96 | G 2.77 | I 2.63
L8: Y 2.53 | E 4.59 | D 5.11 | F 3.05 | S 4.05 | C 3.77 | H 2.56 | M 2.24 | T 3.69 | Q 2.91 | P 5.43 | K 2.39 | I 2.59 | N 3.46 | V 2.81 | R 2.22 | G 5.28
L4: R 2.21 | T 2.27 | S 2.55 | N 2.76 | V 4.59 | W 3.98 | H 3.54 | A 3.64 | E 5.24 | Y 3.47 | C 2.64 | M 3.19 | I 4.64 | D 4.87 | G 2.69
A18: V 2.71 | P 3.08 | G 2.95 | T 3.04 | F 2.73 | H 2.42 | K 2.26 | D 3.24 | E 2.83 | Q 2.86 | L 2.51 | W 2.67 | R 2.45 | Y 2.35 | I 2.57
T6: R 3.15 | P 5.24 | S 2.55 | D 5.37 | Q 2.18 | H 4.28 | V 2.24 | N 4.77 | W 4.06 | C 3.02 | Y 4.5 | L 3.54 | G 4.09 | K 3.32 | F 4.22 | M 3.69
R19: H 2.82 | A 2.75 | W 2.56 | Y 2.53 | E 2.81 | T 2.9 | V 2.8 | Q 2.75 | N 2.71 | P 2.93 | S 2.89 | L 2.47 | G 2.96 | F 2.68 | K 2.79 | C 2.93
Q11: H 2.76 | T 3.21 | F 2.52 | L 2.65 | A 2.7 | I 2.52 | G 3.59 | R 2.26 | Y 2.67 | E 2.88 | K 2.4 | C 2.95 | N 2.92
L22: F 3.49 | P 3.63 | K 4.93 | N 4.7 | Y 3.49 | H 3.44 | A 3.54 | S 3.59 | V 3.17 | R 4.15 | I 2.37 | M 2.44 | G 2.88
E12: T 3.03 | S 3.13 | M 2.93 | D 2.99 | K 2.92 | H 3.39 | W 2.21 | V 3.38 | L 3.04 | Q 2.69 | G 3.78 | A 3.56 | P 3.77 | R 2.59 | Y 3.07 | I 3.15 | F 3.01
E16: C 2.51 | F 2.89 | R 2.68 | W 2.48 | N 2.81 | G 2.9 | K 2.97 | I 2.99 | P 3.16 | Y 2.51 | S 2.86 | L 2.73
P23: K 4.82 | Y 3.49 | G 4.69 | M 2.27 | W 3 | T 4.6 | D 5.15 | H 4.15 | E 5 | S 4.8 | L 4.01 | F 3.94 | N 4.89 | Q 4.85 | I 3.59
